This note sets out measurements from publication PMC5814829.

Holding throughout (experiment): fluorescence anisotropy
In general terms: Polarisation of emitted light reports the rotation of a fluorescent probe.

Series [1] concerns the target T1, ScPif1p D677T (Saccharomyces cerevisiae, UniProt P07271 237-780, D677T).
T1 sequence: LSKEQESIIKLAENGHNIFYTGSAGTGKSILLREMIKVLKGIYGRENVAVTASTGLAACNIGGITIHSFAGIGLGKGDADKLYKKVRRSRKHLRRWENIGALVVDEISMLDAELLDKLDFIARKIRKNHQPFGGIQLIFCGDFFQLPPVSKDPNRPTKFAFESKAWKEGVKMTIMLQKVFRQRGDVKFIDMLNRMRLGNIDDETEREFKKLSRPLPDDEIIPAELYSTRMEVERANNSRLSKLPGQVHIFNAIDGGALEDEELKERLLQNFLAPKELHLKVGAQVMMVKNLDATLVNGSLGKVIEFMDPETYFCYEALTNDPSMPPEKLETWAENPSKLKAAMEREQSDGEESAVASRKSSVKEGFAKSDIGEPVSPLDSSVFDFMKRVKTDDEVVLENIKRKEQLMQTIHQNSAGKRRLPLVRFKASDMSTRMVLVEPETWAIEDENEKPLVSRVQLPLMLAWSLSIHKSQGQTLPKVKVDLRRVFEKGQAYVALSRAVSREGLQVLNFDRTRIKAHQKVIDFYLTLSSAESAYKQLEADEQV

Series [2] concerns the target T2, ScPif1p K595A (Saccharomyces cerevisiae, UniProt P07271 237-780, K595A).
T2 sequence: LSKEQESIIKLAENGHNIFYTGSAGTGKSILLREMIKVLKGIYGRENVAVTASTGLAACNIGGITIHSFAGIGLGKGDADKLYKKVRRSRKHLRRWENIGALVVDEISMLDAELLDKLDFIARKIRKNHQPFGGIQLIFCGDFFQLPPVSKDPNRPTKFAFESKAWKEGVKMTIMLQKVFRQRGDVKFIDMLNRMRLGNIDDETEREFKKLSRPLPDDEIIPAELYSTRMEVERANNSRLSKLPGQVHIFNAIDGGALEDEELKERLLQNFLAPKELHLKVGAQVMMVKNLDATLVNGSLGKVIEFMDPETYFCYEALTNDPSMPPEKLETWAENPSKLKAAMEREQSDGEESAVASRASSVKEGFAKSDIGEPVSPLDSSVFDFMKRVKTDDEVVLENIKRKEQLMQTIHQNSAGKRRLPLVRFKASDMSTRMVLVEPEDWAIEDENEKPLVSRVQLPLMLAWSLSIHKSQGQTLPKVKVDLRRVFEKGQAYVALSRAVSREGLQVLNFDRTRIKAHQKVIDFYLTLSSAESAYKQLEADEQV

For series [3], the target named is T3, ScPif1p (237-780) (Saccharomyces cerevisiae, UniProt P07271 237-780).
T3 sequence: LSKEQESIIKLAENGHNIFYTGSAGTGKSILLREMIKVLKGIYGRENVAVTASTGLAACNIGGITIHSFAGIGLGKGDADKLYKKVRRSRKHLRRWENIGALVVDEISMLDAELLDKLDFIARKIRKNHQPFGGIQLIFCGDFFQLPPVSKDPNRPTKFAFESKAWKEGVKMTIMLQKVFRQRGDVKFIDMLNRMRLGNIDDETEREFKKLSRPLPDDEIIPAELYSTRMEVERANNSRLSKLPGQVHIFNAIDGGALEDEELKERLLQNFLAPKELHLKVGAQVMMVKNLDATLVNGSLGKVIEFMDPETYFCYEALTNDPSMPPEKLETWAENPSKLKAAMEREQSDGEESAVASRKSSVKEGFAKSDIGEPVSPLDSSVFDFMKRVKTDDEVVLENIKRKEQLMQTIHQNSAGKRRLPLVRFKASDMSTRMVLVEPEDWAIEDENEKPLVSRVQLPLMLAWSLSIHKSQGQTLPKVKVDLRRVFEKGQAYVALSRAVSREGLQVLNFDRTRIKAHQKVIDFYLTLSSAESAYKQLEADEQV

B1: GR12 (ssDNA)
DNA: GTGTGTGTGGTG
For B1, the equilibrium dissociation constant (Kd) in series [1] is 10.5 ± 2.6 nM; in series [2], 10.2 ± 1.8 nM; in series [3] it was 6.1 nM.

Broadly, the Kd is the equilibrium constant for the complex coming apart.
